The results in this text go back to paper PMC9388160, “A multidomain connector links the outer membrane and cell wall in phylogenetically deep-branching bacteria” (Proceedings of the National Academy of Sciences of the …, 2022).

One series deals with DR_0644 (uncharacterized protein, UniProt Q9RWM2) (D. radiodurans). As to the kind of experiment: cryo-EM structure; single-particle cryo-EM of SlpA purified from D. radiodurans, in 20 mM Hepes/NaOH pH 7.5, 150 mM NaCl, 0.02% DDM; 4.45 mg/mL; C3 symmetry; global resolution 3.25 Å.
Series [1] concerns the molecule itself. The series is described as above.

In the case of “DR_0644 (uncharacterized protein, UniProt Q9RWM2) (natural protein)”, in the series with DR_0644, the stoichiometry N – broadly, the number of molecules, sites or subunits per partner or assembly – is 3.

B1: SlpA (Deinococcus radiodurans outer membrane protein, UniProtKB Q9RRB6) (natural protein, D. radiodurans, UniProt Q9RRB6 23-1167, looked up)
chain: APVSAPQVPALTDVPAGHWAKDAIDRLVSRGVILGYPDGTFRGTQNLTRYEAAIIIARLLDQMRDGETPAGMTAEDMTALQNAIQELAADLAALGVRVSDLEANAVSKDDFARLEARIEEVAAAGGEQGATEALQGQIDDLTARVDEYDALRADVDDNASSIAALNDLTVLLNQDILDLQDRVSAVEAAQADFVQRSDFDALGGRVTTVETRVETVNNSLTGRIAALERNAFSVKPSLTIGYSVSRTSRNFDVDRLFPLNADGTVANNAFTSGGIDTDTGAQRRDFGDFGNASDPVVAGAAGLYGFADGVSYTVYFTDGSTATFDGLNPADYKVPTGKVIDTTKGRNGFGFNNLARYKEGSTDIGISLGFDTSGQFSQVTSGTGGSLFSTAGRLQVNQIDLNFGLVTGLPSDAYVDTNGNGKKDDGEATGRGTYLGSGGTAAILRDPAGNVYRPVFFRFKNATTQFSVGNNPVIVTLGQQQKFYFSDYVFDNNYDGRGDGFTVTVDGSNVPVIGAWKPQIKGVYGSRSGLDGTAEAGYGVYYRGVRAQITPVGTLTAGIHYAQEGRDMFGAAQNTTSTPSDVTTYGADLHGKAFGVELHSEYATSRVRPNTANAAVQTSNAFYARVATRKDNLAFDLNTPAAKFGNDTFGVSLYDLNYRKIDAGYNNVAGISEYGYGSYSRTSAQNIAYNPDTGVTAPFANLDRQAYTDANNDGTSDRNADGTVVATNTKIGQMGFGVKAAANLGPVAIGGYYDTSTGANGDNANRMTEAGGSAKVAYSIFSLRGTYNTLDSNRPQIYRDAAGTQIIGDAKVRRYAVQADVTPGLGLFVGAYYRDVNVNGVRSTTDRGLLGRGYLASSFEPGVGNNAYRTGLRCADNNFGTGTRDIDGVGGVLNPAVNLDQSRTATCFTSYGVEAGHAGDNANALVKDLFFRVGYSRVYVPTTATATTGDFSGSVTYGDARYDRKVGVANVRLAGSFSTTNTQLDSRPAGTRGAVGLIVRTDPLENVPFRPQFNGQVGYYTADNRVAAGNYNANATKYGAGVVLNDFLLPQTKIGVRYDGYMAQNRQYTPFDGDGTQGYFSDANNNRRTNLNGVYVEGAYQDLIFSYGTYTLSQKDLNGVEYGSGINNGQPARGQTFKISYKVNF
notes: SlpA, D. radiodurans, UniProtKB Q9RRB6; wild-type protein purified from the bacterium; The map is well resolved from residue 215 onwards; Native, untagged protein in DDM micelles; it models the periplasmic segment from residue 20; also called SlpA protein complex; SlpA trimer; source: purified from D. radiodurans (ATCC BAA816): lysozyme treatment, DDM extraction, HiTrap-Q, Superose 6 Increase
B1: the “stoichiometry N” value in series [1] stood at 3.
